5 molecules from patent publication US20240262919A1 (SHANGHAITECH UNIVERSITY, published 2024) can be followed below.

Numbering of substitutions follows the chain as printed.

Experiment [1] concerns the target T1, Rhesus IL-18Rβ (rhesus, UniProt F7HHC1 20-356).
T1 construct: also called rhesus IL-18 receptor beta; monkey IL-18Rβ
T1 sequence: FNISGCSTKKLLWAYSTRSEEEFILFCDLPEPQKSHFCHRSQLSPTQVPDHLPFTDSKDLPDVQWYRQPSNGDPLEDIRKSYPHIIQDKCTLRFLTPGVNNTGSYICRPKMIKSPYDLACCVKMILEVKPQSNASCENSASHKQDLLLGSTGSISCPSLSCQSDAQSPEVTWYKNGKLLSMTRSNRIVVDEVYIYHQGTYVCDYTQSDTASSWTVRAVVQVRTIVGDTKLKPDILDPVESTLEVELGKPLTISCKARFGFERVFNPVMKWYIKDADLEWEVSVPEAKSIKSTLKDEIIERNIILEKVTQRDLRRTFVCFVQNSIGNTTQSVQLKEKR
In words: SPR. (In general: In SPR one partner is held on a chip, and binding of the other changes the refractive index at the surface.)

The target of experiment [2] is T1, Rhesus IL-18Rβ. In words: multipoint direct binding ELISA. (ELISA stands for enzyme-linked immunosorbent assay.)
The target of experiment [3] is T2, human IL-18Rα ECD Fc fusion (816-LR-100; R&D Systems) (human, UniProt Q13478 22-329).
T2 construct: extracellular domain; Bought protein; also called Human receptor; not shown: Fc tag of the bought fusion protein, not described
T2 sequence (looked up): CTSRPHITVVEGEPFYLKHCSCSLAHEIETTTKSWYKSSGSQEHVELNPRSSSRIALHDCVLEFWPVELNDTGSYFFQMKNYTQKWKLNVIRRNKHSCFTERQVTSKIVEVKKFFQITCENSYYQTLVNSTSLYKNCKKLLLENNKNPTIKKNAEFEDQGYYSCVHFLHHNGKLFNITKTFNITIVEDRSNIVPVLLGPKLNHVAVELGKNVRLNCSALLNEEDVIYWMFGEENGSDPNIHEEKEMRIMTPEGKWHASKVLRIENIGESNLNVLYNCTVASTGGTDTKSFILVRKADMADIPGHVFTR
Nature of the experiment: SPR, Fab on human receptor.

In experiment [4] the target is T2, human IL-18Rα ECD Fc fusion …. In words: multipoint direct binding ELISA (drawn table, column EC50 (nM)); the cell equals that of row A3.
For experiment [5] the target is unchanged. Nature of the experiment: competitive binding ELISA with soluble receptor (drawn table, column IC50 (nM)); the cell equals that of row A3.
The target is the same in experiment [6]. Nature of the experiment: direct binding ELISA on immobilised human IL-18Rα (target after legend paragraph 36 and the table of panel C), OD 450 against concentration; panel title and axes say IgG, the key and legend say Fab.
Experiment [7] has the same target. Nature of the experiment: competitive ELISA with a dilution series of soluble receptor; the axis is printed 'Soluble hIL18Rβ concentration (nM)', but legend paragraph 36 and the table of panel C give IL-18Rα for this trace; the competitor is the immobilised receptor; y axis printed 'Inhibition (%)'.
The target of experiment [8] is T3, human IL-18Rβ ECD Fc fusion (118-AP-100, R&D Systems) (human, UniProt O95256 20-356).
T3 construct: Bought protein; also called hIL-18Rβ; recombinant human IL-18Rb; not shown: Fc tag of the bought fusion protein, not described
T3 sequence: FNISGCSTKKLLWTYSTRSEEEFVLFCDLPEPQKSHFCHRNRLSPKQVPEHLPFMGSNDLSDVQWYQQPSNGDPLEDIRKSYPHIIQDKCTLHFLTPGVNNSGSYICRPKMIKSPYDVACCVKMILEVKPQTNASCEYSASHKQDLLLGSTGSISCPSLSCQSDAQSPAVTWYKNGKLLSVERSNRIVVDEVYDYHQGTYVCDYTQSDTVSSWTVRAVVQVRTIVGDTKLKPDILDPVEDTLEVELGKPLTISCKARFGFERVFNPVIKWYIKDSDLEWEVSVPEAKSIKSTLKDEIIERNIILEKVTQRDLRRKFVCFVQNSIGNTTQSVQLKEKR
In words: SPR (Table 5 title), Fab on human receptor.

For another experiment, the target named is T4, mouse IL-18Rβ (mouse, UniProt Q9Z2B1 20-356, limits assumed).
T4 construct: also called Mouse receptor; mouse ortholog
T4 sequence (looked up): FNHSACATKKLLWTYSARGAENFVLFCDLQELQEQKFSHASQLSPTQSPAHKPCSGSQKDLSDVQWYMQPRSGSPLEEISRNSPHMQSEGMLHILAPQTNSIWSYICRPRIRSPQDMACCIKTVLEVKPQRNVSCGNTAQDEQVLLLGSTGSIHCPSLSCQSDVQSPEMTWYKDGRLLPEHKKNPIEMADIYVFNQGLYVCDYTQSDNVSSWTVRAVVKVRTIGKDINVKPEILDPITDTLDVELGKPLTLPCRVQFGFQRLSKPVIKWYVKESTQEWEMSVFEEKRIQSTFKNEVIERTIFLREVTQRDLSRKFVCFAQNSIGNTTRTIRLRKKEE
Nature of the experiment: SPR (Table 5 title), Fab on mouse receptor.

The target in experiment [9] is T3, human IL-18Rβ ECD Fc fusion …. Nature of the experiment: multipoint direct binding ELISA (drawn table, column EC50 (nM)).
Experiment [10] has the same target. Nature of the experiment: competitive binding ELISA with soluble receptor (drawn table, column IC50 (nM)).
Experiment [11] shares this target. Nature of the experiment: biolayer interferometry (BLI) after legend paragraph 36; drawn table, head KD (nM), Human receptor. (In general: In BLI a coated tip is dipped into the sample, and binding shifts an interference pattern.)
The target is the same in experiment [12]. In words: biolayer interferometry (BLI) after legend paragraph 36; drawn table, head kd (10^-4 s^-1), Human receptor.
Experiment [13] shares this target. In words: biolayer interferometry (BLI) after legend paragraph 36; drawn table, head ka (10^4 M^-1 s^-1), Human receptor.
Experiment [14] shares this target. Nature of the experiment: direct binding ELISA on immobilised human IL-18Rβ, OD 450 against concentration; panel title and axes say IgG, the key and legend paragraph 36 say Fab.
Experiment [15] shares this target. In words: competitive ELISA: signal on immobilised receptor after incubation with a two-fold dilution series of soluble hIL-18Rβ; the concentration axis is the soluble receptor; y axis printed 'Inhibition (%)'.

B1: IgG 3131 (antibody, V domains shown)
VH: EVQLVESGGGLVQPGGSLRLSCAASGFNLYYSSMHWVRQAPGKGLEWVASIYSSYGYTYYADSVKGRFTISADTSKNTAYLQMNSLRAEDTAVYYCARSSFSHGYGWYGLDYWGQGTLVTVSS
VL: DIQMTQSPSSLSASVGDRVTITCRASQSVSSAVAWYQQKPGKAPKLLIYSASSLYSGVPSRFSGSRSGTDFTLTISSLQPEDFATYYCQQYGYHYAGLITFGQGTKVEIKR
notes: IgG made by sub-cloning the Fab CDR regions into IgG expression constructs; VL-CL with FLAG tag; also called I3131
One may read the Kd as the free concentration of one partner at which half of the binding sites on the other are occupied at equilibrium, for simple one-to-one binding. The koff is the first-order rate constant of dissociation. A word on the kon: it is the second-order rate constant of association. Broadly, the EC50 is the concentration that produces a half-maximal response. On to B1, for which, in the experiment with Rhesus IL-18Rβ [1], the Kd was 3.9 nM, the koff stood at 0.00015 s⁻¹ and the association rate constant (kon) was 38000 M⁻¹ s⁻¹. In addition, in the experiment with Rhesus IL-18Rβ [2], the EC50 amounted to 11.5 nM.

B2: Fab 12 (Fab)
heavy: EVQLVESGGGLVQPGGSLRLSCAASGFNISSSSIHWVRQAPGKGLEWVASISPSYSSTYYADSVKGRFTISADTSKNTAYLQMNSLRAEDTAVYYCARGAFDYWGQGTLVTVSSASTKGPSVFPLAPSSKSTSGGTAALGCLVKDYFPEPVTVSWNSGALTSGVHTFPAVLQSSGLYSLSSVVTVPSSSLGTQTYICNVNHKPSNTKVDKKVEPKSCDKTHT
light: DIQMTQSPSSLSASVGDRVTITCRASQSVSSAVAWYQQKPGKAPKLLIYSASSLYSGVPSRFSGSRSGTDFTLTISSLQPEDFATYYCQQYWHPFTFGQGTKVEIKRTVAAPSVFIFPPSDSQLKSGTASVVCLLNNFYPREAKVQWKVDNALQSGNSQESVTEQDSKDSTYSLSSTLTLSKADYEKHKVYACEVTHQGLSSPVTKSFNRGECGGSDYKDDDDK
notes: Anti-IL-18Rα Fab; also called F12
What is called IC50 is the point on the concentration scale where inhibition reaches its midpoint. The term EC50 (read off the curve) denotes the concentration at which the effect is half-maximal. As for B2, in experiment [3], the equilibrium dissociation constant (Kd) is 1.9 nM, the koff turned out to be 0.0002 s⁻¹ and the kon was found to be 110000 M⁻¹ s⁻¹. This molecule also returned an EC50 in experiment [4] of 86 nM. In addition, the IC50 in experiment [5] came out at 105 nM. For the same molecule, the “EC50 (read off the curve)” value in [6] is approximately 0.8 nM. Also, in [7], the “IC50 (read off the curve)” value is approximately 20 nM.

B3: Fab 3131 (Fab)
heavy: EVQLVESGGGLVQPGGSLRLSCAASGFNLYYSSMHWVRQAPGKGLEWVASIYSSYGYTYYADSVKGRFTISADTSKNTAYLQMNSLRAEDTAVYYCARSSFSHGYGWYGLDYWGQGTLVTVSSASTKGPSVFPLAPSSKSTSGGTAALGCLVKDYFPEPVTVSWNSGALTSGVHTFPAVLQSSGLYSLSSVVTVPSSSLGTQTYICNVNHKPSNTKVDKKVEPKSCDKTHT
light: DIQMTQSPSSLSASVGDRVTITCRASQSVSSAVAWYQQKPGKAPKLLIYSASSLYSGVPSRFSGSRSGTDFTLTISSLQPEDFATYYCQQYGYHYAGLITFGQGTKVEIKRTVAAPSVFIFPPSDSQLKSGTASVVCLLNNFYPREAKVQWKVDNALQSGNSQESVTEQDSKDSTYSLSSTLTLSKADYEKHKVYACEVTHQGLSSPVTKSFNRGECGGSDYKDDDDK
notes: also called F3131
For the molecule B3, the results for the equilibrium dissociation constant (Kd) (in [8]; with mouse IL-18Rβ; in experiment [11]) were 6.2 nM, 5.2 nM and 6.1 nM, respectively. The koff stood at 0.00127 s⁻¹ in experiment [8], 0.00062 s⁻¹ in the experiment with mouse IL-18Rβ and 0.0013 s⁻¹ in experiment [12]. Besides, the kon in [8] came out at 210000 M⁻¹ s⁻¹; with mouse IL-18Rβ, 120000 M⁻¹ s⁻¹; in experiment [13], 210000 M⁻¹ s⁻¹. This molecule also returned an EC50 in experiment [9] of 16 nM. The half-inhibitory concentration (IC50) in experiment [10] is 82 nM. For the same molecule, in [14], the “EC50 (read off the curve)” value was approximately 0.3 nM. In [15], the “IC50 (read off the curve)” value is 1 to 2 nM.

B4: Fab 3132 (Fab)
heavy: EVQLVESGGGLVQPGGSLRLSCAASGFNISYYYIHWVRQAPGKGLEWVASIYSYSGYTSYADSVKGRFTISADTSKNTAYLQMNSLRAEDTAVYYCARASAMDYWGQGTLVTVSSASTKGPSVFPLAPSSKSTSGGTAALGCLVKDYFPEPVTVSWNSGALTSGVHTFPAVLQSSGLYSLSSVVTVPSSSLGTQTYICNVNHKPSNTKVDKKVEPKSCDKTHT
light: B3 light with Y91H, G92W, Y93W, H94A, Y95S, A96V, G97P, L98P, I99F
notes: also called F3132
Molecule B4 gave a half-maximal effective concentration (EC50) in experiment [9] of 33 nM. In addition, the half-maximal inhibitory concentration (IC50) in experiment [10] was found to be 74 nM. In addition, the Kd in [11] was found to be 133 nM. In addition, in experiment [12], the dissociation rate constant (koff) was 0.0013 s⁻¹. In experiment [13], this molecule gave a kon of 10000 M⁻¹ s⁻¹. Moreover, the “EC50 (read off the curve)” value in experiment [14] is approximately 0.5 nM. Also, the “IC50 (read off the curve)” value in experiment [15] is approximately 9 nM.

B5: Fab 3144 (Fab)
heavy: B4 heavy with I29L, Y33S, A99S
light: DIQMTQSPSSLSASVGDRVTITCRASQSVSSAVAWYQQKPGKAPKLLIYSASSLYSGVPSRFSGSRSGTDFTLTISSLQPEDFATYYCQQHWWGYPLITFGQGTKVEIKRTVAAPSVFIFPPSDSQLKSGTASVVCLLNNFYPREAKVQWKVDNALQSGNSQESVTEQDSKDSTYSLSSTLTLSKADYEKHKVYACEVTHQGLSSPVTKSFNRGECGGSDYKDDDDK
notes: also called F3144
As for B5, the Kd in experiment [8] came out at 1.8 nM; with mouse IL-18Rβ it was 12.9 nM; in [11] it was 6.4 nM. Besides, the dissociation rate constant (koff) in [8] was 0.00058 s⁻¹; with mouse IL-18Rβ, 0.0012 s⁻¹; in [12], 0.0011 s⁻¹. Also, the on-rate (kon) was 320000 M⁻¹ s⁻¹ in experiment [8], 93000 M⁻¹ s⁻¹ with mouse IL-18Rβ and 170000 M⁻¹ s⁻¹ in [13]. The EC50 in experiment [9] amounted to 16 nM. The molecule also yielded an IC50 in experiment [10] of 19 nM. For the same molecule, the “EC50 (read off the curve)” value in experiment [14] was approximately 0.4 nM. Also, the “IC50 (read off the curve)” value in experiment [15] was approximately 2 nM.
